Reference: publication PMC9116133
Each block holds one substance with its values, some of them ahead of it.

Experiments:
[1] = molecular target: truncated zymogen of histo-aspartic protease (pro-tHAP) (P. falciparum); test: crystal structure
[2] = molecular target: truncated zymogen of plasmepsin I (pro-tPMI) (P. falciparum); test: SAXS
[3] = molecular target: truncated zymogen of plasmepsin II, wild type (pro-tPMII) (P. falciparum); test: SEC

stoichiometry N [1]: 2
Substance: truncated zymogen of histo-aspartic protease (pro-tHAP) (enzyme)

stoichiometry N [2]: 2
Substance: truncated zymogen of plasmepsin I (pro-tPMI) (enzyme)

stoichiometry N [3]: 2
Substance: truncated zymogen of plasmepsin II, wild type (pro-tPMII) (enzyme)
